Experimental data from the DeepSol protein solubility set.

Experiment: soluble on expression in E. coli; label from the status in PepcDB or PDB records

MGSDKIHHHHHHMSLAIVYSRASMGVQAPLVTIEVHLSNGKPGFTLVGLPEKTVKEAQDRVRSALMNAQFKYPAKRITVNLAPADLPKEGGRFDLPIAIGILAASDQLDASHLKQFEFVAELALTGQLRGVHGVIPAILAAQKSKRELIIAKQNANEASLVSDQNTYFAQTLLDVVQFLNGQEKLPLATEIVKESAVNFSGKNTLDLTDIIGQQHAKRALTIAAAGQHNLLFLGPPGTGKTMLASRLTGLLPEMTDLEAIETASVTSLVQNELNFHNWKQRPFRAPHHSASMPALVGGGTIPKPGEISLATNGVLFLDELPEFERKVLDALRQPLESGEIIISRANAKIQFPARFQLVAAMNPSPTGHYTGTHNRTSPQQIMRYLNRLSGPFLDRFDLSIEVPLLPQGSLQNTGDRGETSAQVREKVLKVREIQMERAGKINAYLNSKEIERDCKLNDKDAFFLEKALNKLGLSVRAYHRILKVSRTIADLQGEQQIFQPHLAEALGYRAMVRLLQKLSNM
soluble on expression in E. coli: not soluble

KRKFACVECRQQKSKCDAHERAPEPCTKCAKKNVPCILKRDFRRTYKRARNEAIEKRFKELTRTLTNLTSDE
soluble on expression in E. coli: soluble

MGSDKIHHHHHHMAYQLRSAALTNYVEVARAVGLDPYQQLRAARISRSVLLDPDIRIPAQAVSRLLESSANAAGIQDFGLRMAETRQLSNLGPLAFAMRQEPTLRRALESMARYLRLQNEAIAMRIEEAEGLVMLRQEALTGVAGSLRQSTDLVVGVLYRVLALVLGPKWRPRSICFSHAAPGSTAMYLRLFGMPVLFNQEFDGIICVASDLEVPLPSYDPTMARQVQQYLDTMLAQSDATISDKVRRLVLALLPSGACTIERVAQHMGVDVRTVQRRLANYDETFSAIVTATRVDLATRYLENRERPLSEVATLLGFGSLSAFSRWFGGHFGCSVSKWRAKGFAKAVKKEGAGRSH
soluble on expression in E. coli: not soluble

MGSDKIHHHHHHMKIGFVGAGVGTLHAALLLTKRYPEVEITIFEKESRAGGRLASVDFETGGRIDQGPTIVLMPGKLQEQLREAGLEGVELERIDPLYDLHFDDGTIVTKQADVVDQTIAIERQFGEGRGFQEFMQQKAKDYDVSVSKFLERTYSRKRDLLHPDMLAPLVKMHAMETAHDHLKRFFKSKHLRMAYSFPTFYIGGNPYTTPSIYGLIPYREQEEGVWYVKGGYFSLAERMYEALVERGVTFKFNQPVDRVLIQQGQTKGLVAAGQEYVYDTVVLNGEFPLMEYLVEGKQPKKYVPSGGTLLLYFKIDGKVDLPVHRFLMPSDLKPLMTSIFKKNELPENPAVYLFNPSKIDDALTASGTSVVYALVPSPRGFDQANYEAHGFIDQILDKIEQHLPGFQSQVTEMKIRTPQDAQDFGLYEGGSFGIAPTIRQSAALKTQAKPYADIERLYAVGASVHPCGGVPIVMMGATLLVNRMEQEMRWKNGYSDERISSM
soluble on expression in E. coli: not soluble

MCDIGNRQAYQRAQLDALLGRVRLQANQMEWRPGIYVGEGTTIASSAQLEPPLWIGQHCYIGEEVQLKAGTVIGDESRIEAGACLDRAVVWNRVQIGQRSHLEGCVLEHHHHHH
soluble on expression in E. coli: not soluble

SFDNSLSRELSRKQNENQMFVYSFEASASMLSSDTEYIQKNDIEKIIDSVKRSMGESQIGITIVNQKEKAIYTDSKIGKNIKIKDLKDNNFGYLIFKNNGSYYLETMSKMTIESGTYYISIVSSINEVYNDINEMMKN
soluble on expression in E. coli: not soluble

MAHHHHHHMRASERVPADDAATRVCPHSLIDSPSPSLMQAASAVATATATSSGIANLKQEASHEERLKVADHTAVKAWSLLNKMWYPDYHMASLAGWMGVPGGLCYHNGFYHVFYQYNPFSENWGPMHWGHMTSEDLVHWQHQPIALAPGELFDHDGCFSGSSVSYNNKLYIFYTGHTWRTESEKGSGNGTMGDGASFYQQQCVAVSSDGVNFEKLGAVVRPPPGYVHFRDPKVWQQDGRWWMVCGARDVTKDLGQLLLFTTEDLLKWDDTNWQVLGMTEDKNVFMWECPDMFRLGQMNVFLYSPQGMRKADYAYRNRFQSGYLLGSWNMSLVTAALSEREAGSPKGTASGSHAIGGPRWLASFDVTQRFREIDRGHDFYAPQTLLTKDGRRLIIGWMDMWESPMPTRGHGWSGCLTLPRELILDPFTGSVRMVPPKELLQLRCAQATILAQRIQESTDVLLVESCTAYELDIAFNMETSTAEKYGLWLGSGAELYVDAQSKRLVLNRHYPQHMLSGYRSCELPIGLLLQLHVFIDRSSIEVFVNNGEATFSSRVFPDEGDRALRVFSVNGTADMVGGTMWKLKATVRH
soluble on expression in E. coli: not soluble

MGSDKIHHHHHHMNSKLSLSTKLSSSGKTQLAEYFATPPFKVITLPSYDDAWANGLNAMQMSSSPGVLAGDLLEIDISLAKLTALSLNTQAFTRVQAMNEGDSAMQTTHILLAENSRLFYLPHPLVLHRDSVFKQQTQIEMGEQSELIYGEIVAIGRVLNDERFAFRQFSSHLKIYALQNDGKKRPLVSDCIQWLPSKMNLTALSQMENYSHQGSLTYLNLAKNNAEIKQQVQALQQQSTEEKDLLIGISQLNEYGLMVRVLGCRAEANSEII
soluble on expression in E. coli: not soluble

MRVGQHTLQFANPPVIVATASVVGPKEGEGPLGDTFDMVIDDSYFGEETWEKAERKMLEEAVKMVIAKAQLKPQDIDFLLAGDLLNQTISANYAARSLGIPFLGLYGACSTMYEGMALAAMLIDGGFAHHVVAACSSHYDTAERQYRFPTEQGIQRPPTAQWTVTGAGAVLMAPVGNGPRITHATIGRVLDVGIKDPNDMGSAMAPAAVDTIVRHFQDTGRGPIDYDLIITGDLGRVGHEIATKLLGEKKYDVSKNYSDCGILIYDHERQDTHAGGSGCACSAVVFAGHLMGKLNEGRYKRILGVGTGALLSTTATQQGESIPGIGHGVVIEGLEHHHHHH
soluble on expression in E. coli: not soluble

PQEKVSRIHASSGTTGRPTVVGYTTGDLNNWADLVARSLRAGGVKPTDKVHVAYGYGLFTGGLGAHYGAERLGCTVIPMSGGMTDRQIQLIEDFEPDAIMVTPSYMLTIVDAMIKKGIDPSKTSLRTGVFGAEPWTEEMRTELEKQLNMDAVDIYGLSEVMGPGVAMECVDTKDGLHI
soluble on expression in E. coli: not soluble

MSLKITELSRDLTTGLTTATTSIADYFFGNTHHSHHVFYLNLTVLKAKRAAKVENKKFIDLKLIKLTSGNGGNGCVSFFKDNFKPMGPPDGGDGGNGGSIYLNVVDKNITSLHGLQKRYVAKGGQPGKGSQLDGKSGDDIIIDIPLGTIVRWIPDPQDFKKFVSQREGDALNDVFMEFDIDDRDFIQLNRGGYRPGEGWIFKEHDEEYFRDKDFFQDLNEKVTGYDEELLFEESYNDRFPIVGLDCNQVTQKPLLLLRGGKGGLGNMHFLTKEIKGPRFCKMGRPGITANFLLELKLIADLGLVGLPNAGKSSLLRAISKARPRVGHWEFTTLQPTVGTIFTRIDKDPFTVADIPGIIKGASQNKGMGLDFLRHIERSGGLVFVVSLESANPVDDLKILLEEVGPRRMKDKNVLVVATKADLSSEGANFKVLRDYIEHNHSEWKIVPVCAPKGENVERCIKLMSEIAQTKKKEGHHHHHH
soluble on expression in E. coli: soluble

MEKASSPEKWLAKVSVTLTKAKPDEIWPLFTDFFNLHKWLPTLATCHGVHGNNGEQGCIRFCSGFSIGSNGVDSAARWSKEKLVAVNPVERVMRYEIVESNTGFESYVSTVKILPRGEDGCVIEWSFTVDPVRGLSLENLVKKYEKALEIITKNMEEDALRRRESSS
soluble on expression in E. coli: soluble

MWGACKVKVHDSLATISITLRRYLRLGATMAKSKFEYVRDFEADDTCLAHCWVVVRLDGRNFHRFAEKHNFAKPNDSRALQLMTKCAQTVMEELEDIVIAYGQSDEYSFVFKRKTNWFKRRASKFMTHVASQFASSYVFYWRDYFEDQPLLYPPGFDGRVVVYPSNQTLKDYLSWRQADCHINNLYNTVFWALIQQSGLTPVQAQGRLQGTLAADKNEILFSEFNINYNNEPPMYRKGTVLIWQKVDEVMTKEIKLPTEMEGKKMAVTRTRTKPVPLHCDIIGDAFWKEHPEILDEDS
soluble on expression in E. coli: soluble

NDNRPVFKEGQVEVHIPENAPVGTSVIQLHATDADIGSNAEIRYIFGAQVAPATKRLFALNNTTGLITVQRSLDREETAIHKVTVLASDGSSTPARATVTINVTDVN
soluble on expression in E. coli: soluble

STRERLLSALEDLEVLSRELIEMLAISRNQKLLQAGEENQVLELLIHRDGEFQELMKLALNQGKIHHEMQVLEKEVEKRDSDIQQLQKQLKEAEQILATAVYQAKEKLKSIEKARKGAISSEEIIKYAHRISASNAVCAPLTWVPGDPRRPYPTDLEMRSGLLG
soluble on expression in E. coli: not soluble

MDLSQLTPRRPYLLRAFYEWLLDNQLTPHLVVDVTLPGVQVPMEYARDGQIVLNIAPRAVGNLELANDEVRFNARFGGIPRQVSVPLAAVLAIYARENGAGTMFEPEAAYDEDTSIMN
soluble on expression in E. coli: soluble

MANLPSSSGMFSRLLANVFNTTVASRCSASGRWWPQPEYELSKHRSRAPSMGIHRRTRLNVVDNSALGKEADTTGKLPYCIHVYKQGRRAKHMPHAELGDKILVAIRGQMRKAYVVGANTHVHYRKHGVPVTDQNMIVLLDEEGNPLGNRITAPIPTKLMANRGNVQFSKVLALANKFI
soluble on expression in E. coli: soluble

MPKRTDIKSILILGAGPIVIGQACEFDYSGAQACKALREEGYRVILVNSNPATIMTDPEMADATYIEPIHWEVVRKIIEKERPDAVLPTMGGQTALNCALELERQGVLEEFGVTMIGATADAIDKAEDRRRFDVAMKKIGLETARSGIAHTMEEALAVAADVGFPCIIRPSFTMGGSGGGIAYNREEFEEICARGLDLSPTKELLIDESLIGWKEYEMEVVRDKNDNCIIVCSIENFDAMGIHTGDSITVAPAQTLTDKEYQIMRNASMAVLREIGVETGGSNVQFAVNPKNGRLIVIEMNPRVSRSSALASKATGFPIAKVAAKLAVGYTLDELMNDITGGRTPASFEPSIDYVVTKIPRFNFEKFAGANDRLTTQMKSVGEVMAIGRTQQESLQKALRGLEVGATGFDPKVSLDDPEALTKIRRELKDAGADRIWYIADAFRAGLSVDGVFNLTNIDRWFLVQIEELVRLEEKVAEVGITGLNADFLRQLKRKGFADARLAKLAGVREAEIRKLRDQYDLHPVYKRVDTCAAEFATDTAYMYSTYEEECEANPSTDREKIMVLGGGPNRIGQGIEFDYCCVHASLALREDGYETIMVNCNPETVSTDYDTSDRLYFEPVTLEDVLEIVRIEKPKGVIVQYGGQTPLKLARALEAAGVPVIGTSPDAIDRAEDRERFQHAVERLKLKQPANATVTAIEMAVEKAKEIGYPLVVRPSYVLGGRAMEIVYDEADLRRYFQTAVSVSNDAPVLLDHFLDDAVEVDVDAICDGEMVLIGGIMEHIEQAGVHSGDSACSLPAYTLSQEIQDVMRQQVQKLAFELQVRGLMNVQFAVKNNEVYLIEVNPRAARTVPFVSKATGVPLAKVAARVMAGKSLAEQGVTKEVIPPYYSVKEVVLPFNKFPGVDPLLGPEMRSTGEVMGVGRTFAEAFAKAQLGSNSTMKKHGRALLSVREGDKERVVDLAAKLLKQGFELDATHGTAIVLGEAGINPRLVNKVHEGRPHIQDRIKNGEYTYIINTTSGRRAIEDSRVIRRSALQYKVHYDTTLNGGFATAMALNADATEKVISVQEMHAQIK
soluble on expression in E. coli: soluble

GDYYDYLFKIVLIGDSGVGKSNLLSRFTRDEFNLESKSTIGVEFATKSIQLKNNKIIKAQIWDTAGQERYRAITSAYYRGAVGALLVYDITKKNSFENIEKWLKELRDNADSNIVILLVGNKSDLKHLRVINDNDATQYAKKEKLAFIETSALEATNVELAFHQLLNEIYNVRQKKQATKN
soluble on expression in E. coli: soluble

MSLEREKVELFKEVLKKLHKGEDVESLKKQFGELLSQIPPFEIPVIEQELLKSGEIDVRDIIKMCDLHVEFFRGAVSEAGREIEKLPNGHPLRTLYEENKQILKDAEALSLLASSMFSLPKDDPRRKQFYEKLVQHVSELHRIGLTHYTREEMLIFPYIERRGITAVPTVLWSKHDETRLKIRLLLNLLKKEESDERLKEEALELSRMLSDMVFRENNILYPTLKVLLTEGEWKAIKMLEKDIGYYKIEVTEEWETPEKPLLPHRNCLRRPIPFRGLGGSRHVYHLQIQEGHHHHHH
soluble on expression in E. coli: soluble
